Here are results for 5 molecules from patent US20030171255.

In data set [1] the test system is recombinant DARPP-32 phosphorylated in vitro at Ser137 by CK1.
Data set [2] has as its target T1, recombinant DARPP-32 phosphorylated in vitro at Ser137 by CK1.
T1 sequence (Q9UD71 1-204, species assumed, looked up): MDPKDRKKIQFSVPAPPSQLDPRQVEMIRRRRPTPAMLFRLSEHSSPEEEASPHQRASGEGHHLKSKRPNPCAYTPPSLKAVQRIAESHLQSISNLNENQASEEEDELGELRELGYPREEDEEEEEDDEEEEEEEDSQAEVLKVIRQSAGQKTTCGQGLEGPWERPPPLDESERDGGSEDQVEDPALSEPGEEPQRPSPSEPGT
This is another data set of the same source.

Usually KM stands for the concentration of substrate that gives half-maximal velocity. By kcat is commonly meant the number of substrate molecules converted per active site and unit of time at saturation. In general, kcat/KM refers to the turnover number divided by the Michaelis constant.

Where two headings read alike, the source gives them in different places.

Turning to “recombinant His-tagged PP2Cd (protein phosphatase 2C delta isoform) cloned from rat striatum”, the “dephosphorylation of phospho-Ser137-DARPP-32 (release of 32P)” value (“dephosphorylation” for short) in data set [1] is “PP2Cd did not dephosphorylate phospho-Ser137-DARPP-32”.
Regarding “recombinant His-tagged PP2Cb (protein phosphatase 2C beta isoform) cloned from rat striatum”, in data set [1], the KM turned out to be 25.3 µM; the Vmax, µmol mg^-1 min^-1 (µmol mg^-1 min^-1) worked out at 0.99; the “dephosphorylation” value is “the PP2Ca, b and g demonstrated similar initial rates of dephosphorylation”; the kcat was 0.78 s⁻¹. In addition, the kcat/KM in data set [1] was determined as 31000 M⁻¹ s⁻¹.
With “CK1 (casein kinase 1) obtained from New England BioLabs”, the “stoichiometry of in vitro phosphorylation at Ser137” value in the data set on recombinant DARPP-32 was “stoichiometry of 1 mol/mol”.

B1: recombinant His-tagged PP2Ca (protein phosphatase 2C alpha isoform) cloned from rat striatum (protein)
chain: MGAFLDKPKMEKHNAQGQGNGLRYGLSSMQGWRVEMEDAHTAVIGLPSGLETWSFFAVYDGHAGSQVAKYCCEHLLDHITNNQDFKGSAGAPSVENVKNGIRTGFLEIDEHMRVMSEKKHGADRSGSTAVGVLISPQHTYFINCGDSRGLLCRNRKVHFFTQDHKPSNPLEKERIQNAGGSVMIQRVNGSLAVSRALGDFDYKCVHGKGPTEQLVSPEPEVHDIERSEEDDQFIILACDGIWDVMGNEELCDFVRSRLEVTDDLEKVCNEVVDTCLYKGSRDNMSVILICFPNAPKVSAEAVKKEAELDKYLENRVEEIIKKQGEGVPDLVHVMRTLASENIPSLPPGGELASKRNVIEAVYNRLNPYKNDDTDSASTDDMW
For B1, in data set [2], the KM was 13.1 µM; the Vmax, µmol mg^-1 min^-1 (µmol mg^-1 min^-1) turned out to be 0.39; the “dephosphorylation” value is “the PP2Ca, b and g demonstrated similar initial rates of dephosphorylation”; the kcat is 0.31 s⁻¹. For the same molecule, in data set [2], the kcat/KM is 23000 M⁻¹ s⁻¹.

B2: recombinant His-tagged PP2Cg (protein phosphatase 2C gamma isoform) cloned from rat striatum (protein)
chain: MGAYLSQPNTVKCSGDGVGAPRLPLPYGFSAMQGWRVSMEDAHNCIPELDNETAMFSVYDGHGGEEVALYCAKYLPDIIKDQKAYKEGKLQKALQDAFLAIDAKLTTDEVIKELAQIAGRPTEDEDDKEKVADEDDVDNEEAALLHEEATMTIEELLTRYGQNCQKGPPHTKSGTGIGDEPEPQGLNGEAGPEDPSRETPSQENGPTAKGHTGPSSNSDHGTEAGQIGEPGTATGEAGPSCSSASDKLPRVAKSKFFEDSEDESDEVEEEEDDSEECSEDEDGYSSEEAENEEDEDDTEEAEEDDDEEMMVPGMEGKEEPGSDSGTTAVVALIRGKQLIVANAGDSRCVVSEAGKALDMSYDHKPEDEVELARIKNAGGKVTMDGRVNGGLNLSRAIGDHFYKRNKNLPPQEQMISALPDIKVLTLTDDHEFMVIACDGIWNVMSSQEVVDFIQSKISQRDENGELRLLSSIVEELLDQCLAPDTSGDGTGCDNMTCIIICFKPRNTVELQPESGKRKLEEALSTEGAEENGNSDKKKAKRD
Take B2: in data set [2], the KM was 7 µM; the Vmax, µmol mg^-1 min^-1 (µmol mg^-1 min^-1) is 0.31; the “dephosphorylation” value is “the PP2Ca, b and g demonstrated similar initial rates of dephosphorylation”; the kcat was found to be 0.32 s⁻¹. The kcat/KM in data set [2] amounted to 45000 M⁻¹ s⁻¹.
